Columns and labels:
[1] = molecular target: F-actin from rabbit skeletal muscle acetone powder (rabbit) (UniProt P68135)
[2] = molecular target: rhodamine phalloidin F-actin (G-actin from Cytoskeleton, AKL99) (UniProt P68135); test: ultrafast force-clamp spectroscopy (optical tweezers); single biotinylated myosin-5B on a streptavidin bead pedestal, single actin filament suspended between two trapped alpha-actinin beads; 25 mM MOPS pH 7.2, 25 mM KCl, 4 mM MgCl2, 1 mM EGTA, 2 uM CaM, 100 uM ATP; assistive and resistive forces 0.5-3 pN; no added Ca2+

actin-activated steady-state ATPase activity (NADH-coupled assay), Kapp for F-actin at 2000 µM ATP [1] | k0^+ (detachment rate from actin, exponential fit extrapolated to zero force, resistive forces, 100 µM ATP) [2] | k0^− (detachment rate from actin, exponential fit extrapolated to zero force, assistive forces, 100 µM ATP) [2] | Substance
1.34 µM |  |  | myosin-5B heavy meromyosin with bound calmodulin (Flag-tagged) (from UniProt P21271 1-1095; P0DP29 1-149) (complex)
 | 0.64 s⁻¹ | 2.3 s⁻¹ | biotinylated Avi-tag myosin-5B heavy meromyosin with bound calmodulin (from UniProt P21271 1-1095; P0DP29 1-149) (complex)

Reference: paper PMC6054644
